Test results: paper PMC2853123
Read-outs that look alike come from different tables or passages of the source.

T1: MBNL1 (GST-MBNL1 1-260) (UniProt Q9NR56 1-260)
T1 sequence: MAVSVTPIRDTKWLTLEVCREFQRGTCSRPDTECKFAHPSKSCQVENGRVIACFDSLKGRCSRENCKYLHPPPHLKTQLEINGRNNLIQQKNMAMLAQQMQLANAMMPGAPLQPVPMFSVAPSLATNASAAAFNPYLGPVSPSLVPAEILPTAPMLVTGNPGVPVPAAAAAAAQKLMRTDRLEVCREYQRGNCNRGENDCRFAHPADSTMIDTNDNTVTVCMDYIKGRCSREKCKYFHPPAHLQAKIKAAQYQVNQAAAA


Columns and labels:
Experiment in all cases: EMSA
[1] = target: T1, MBNL1 (GST-MBNL1 1-260)
[2] = target: T1, MBNL1 (GST-MBNL1 1-260); remark: listed apart in the source
[3] = target: T1, MBNL1 (GST-MBNL1 1-260); remark: listed apart in the source
[4] = target: T1, MBNL1 (GST-MBNL1 1-260); remark: listed apart in the source
[5] = target: T1, MBNL1 (GST-MBNL1 1-260); remark: listed apart in the source

Row | Binder | Kd [1] [µM] | further results
1 | CCUGCUUCGCUUCUGCAUUGUUCGGCCGGUUG (ssRNA) [A04 32mer] | 0.18 | –
2 | H01 CA1-2 (ssRNA) RNA: GGGAAUGGAUCCACAUCUACGAAUUCCCUCAUUUCAUAUUGCGCUGCAAUUCCUGUUCAAGACUCGAUACGUGACGAACCU | – | binding signal [2]: 12 fold lower affinity than H01
3 | CUGCUUCUGCUUCUGCUUCUGCUUCUGCUUCUGCUU (ssRNA) [(CUGCUU)6 (SELEX motif 1)] | – | binding result [3]: binds
4 | CCUUUAUUGUGCAUGCUUAGUCUUGUUAUUCGUUGUAUAU (ssRNA) [MBNL1 site #2] | 0.045 | –
5 | GCCGAGGAGGUGGUGUGAUUGCUUUAGCGCCGUCAUUUUC (ssRNA) [GRIN1] | 0.28 | –
6 | GCGGCGGGCAGCUGUGCUGGAGAGCAGAUGCUUCACCAAU (ssRNA) [INSR] | 0.12 | –
7 | CCGAUCCCGCUUAUGCCAUCCGCUGCAGUCAC (ssRNA) [F06 32mer] | – | binding result [4]: binds
8 | CCUGUCUCGCUUUUCCCCUCCGCUGCGGCCAC (ssRNA) [TNNT2 32mer] | 0.02 | –
9 | UGUUCCUCGCUUUUCGCCUCCGCUUCCGCCGC (ssRNA) [B07 32mer] | 0.00066 | –
10 | TNNT2 81mer template (ssRNA) RNA: GGGAAUGGAUCCACAUCUACGAAUUCCCUGUCUCGCUUUUCCCCUCCGCUGCGGCCACAAGACUCGAUACGUGACGAACCU | 0.03 | –
11 | F06 UCCA 81mer (ssRNA) RNA: GGGAAUGGAUCCACAUCUACGAAUUCCCGAUCCUCCAUAUGCCAUCCGCUGCAGUCACAAGACUCGAUACGUGACGAACCU | – | binding signal [5]: 140 fold lower affinity than F06
12 | UGCCACUGCUGCUGCUGCGCUUCCAGUCAGGGUGGGCCGC (ssRNA) [ATP2A1] | 0.015 | –
